# Assay: soluble on expression in E. coli; label from the status in PepcDB or PDB records
row,Sequence,soluble on expression in E. coli
1,MGSDKIHHHHHHAGLPDNLTPVGAERAASPDGRIPAWQGGLSTAQQRLGDNGTPLDPFADEQPLYRITAANYRQYRGQLTDGQVALLKRFPASLSLPVYPTHRSVAVPDAVAASAARNAEQAQLDDQGNGVRGFTGVIAFAQPTNGLEVIWNHLTRHRNVSYSLSSDSVTPLKNGRFVLMSARQEVARPEGLANLGAGNVLYYFTYRMTAPSRLAGDAMVVHETLDQVAEPRLSWVYSASQRRVRRAPNIAYDTTGPGTAGLRTADSRDMFNGAPDRYDWKLLGKQALHVPYNCYRLASPELRYVDLIKPGHIDPAPTRYELHRVWVVEATLKPGAQHIYAKRRFYLDEDTWAILETDSYDARGELWRTSQAHGFFHPSGQVAVNAMEITYDLKSGRYHASGLINEQRRPFAFNVRTSLSYFSPGALRSFGVR,not soluble
2,MSLSDQTLQDILRYLTEETGLAPFQVANTVELLREGGTVPFIARYRKERTGELDEVGIRGIEERLAYFTELEERKLTVLKSIEEQGKLTPELADRIRTSRQKTEVEDLYLPYKPKRRTKATIARERGLEPLADLMAAQELTAGTPEEATLPFVDPAGEVPDAAAALEGAGHILAERLADDADARAFVRRLTADQGIFCSRVAADRKGAVTKFEMYYDHREPLKSVPSHRMLAMRRGEKEEVLVLTIEAPTEEILAGLRARIAGRASIFRQLLEGAAEDAYKRLIAPSIEVELRLEAKQRADEAAITVFAQNLRNLLLAPPAGGKRVLGVDPGLRTGSKLAAVDGTGRFLEHVTIYPHAGGEGKVAAAKREFLRLVECHGIEMVAVGNGTAGREMEQFAKETLAEGGKRIPVVMVSEAGASVYSASEIAREEFPDLDLTVRGAISIARRLQDPLAELVKIDPKSIGVGQYQHDVDQRALKKSLDAVVESCVNYVGVDLNTASWALLSYVSGVGPSLARAIVRHRDEHGPFPARRALMKVPRFGDKAFEQAAGFLRIRGGEHPLDATAVHPERYPVVEAMATDLGVSLSQLAADPALPARIDLKRYVTDAVGLPTLRDIMEELKKPGRDPREEFRTAAFRDDVTEIGDLKEGMVLQGVVTNVTAFGAFVDVGVHQDGLVHVSHLSVKFVKDPAEAVRVGQVVQVKVLSVDVQRKRISLSIREAAPGGAPRSTEGHHHHHH,soluble
3,MASTKSELIERLATQQSHIPAKTVEDAVKEMLEHMASTLAQGGSGGLTKAEMSEYLFDKLGLSKRDAKELVELFFEEIRRALENGEQVELSGFGNFDLRDKNQRPGRNPKTGEDIPITARRVVTFRPGQKLKSRVENAGGGERIEIRGFGSFSLHYRAPRTGRNPKTGDKVELEGKYVPHFKPGKELRDRANIYGGSGHHHHHH,soluble
4,MDVRSAPSNHATAVPTAQPSAPSIKSTLSKLFRAQCSDPVPLSSSSSTERIAPPRVTANYSAVVDISKTASHSKTNADTAEKNSFSWLKNKLSTVSENQQKKQAIQNFIAQVSQQYNVEEDVAKLAVAASGAYRQLRFEETQQQRVHACLQDTEALTAMIDLATRKPLTYKMVMGLDSSDCSFDPIARISDHDILTEAEQCQVVRSAFASADKVCVVTSYGIKPLGAPKSDALSPTIASVLQGFASKQHDKDFTGVFFYQKSDAIQNYYTEDKRTNISIKENDWAKAVTLFNAAVERGEIEGPKEGLK,not soluble
5,MGSDKIHHHHHHMKKYYLLSLISASLIGATCIQCTSPKQKSGENTLPQKSELFVSLPDYCPTPDGMAIAPNGDLILACPNFADITQPACLMRITKDGAVSKWLDVPVLEETGWASPMGLAFNEEGDLFISDNQGWSGAEKAKNKGRVLRLKFENDQLKETITVASGMEHPNGIRIRNGKLYVTQSSLSQIKDPSGLLVSGVYCFDMNDRDIAVTNTSADQNLLTTVITKNPEVQYGLDGIVFNEAGDLFVGNFGDGAIHRIKMDAEGKVVSNDVWAQDTTQLRTTDGMCIDDKGNIWVADFSANAVARVDKDGKIQRIAQSPDCDGSDGGLDQPGEPIVWNGQVIVSCFDLVTGPDKVNTKHDKPFTLAKLSLE,not soluble
6,MSLEISNRLKSISEVMDRCEIAADIGTDHAYLPIYLIKNNLCKRFIASDVNAGPLKKAINNINKYKLEDKIECRLGSGLNVLKLEEVDVVVIAGMGGNLIRDIIEERLDIFKKLKYAVLQPVQNPEILREYLIKRGFNIIEEQLCIDESKYYEIIKVCYDSKIEDKDDVYYEIGDKLIDMKHPLLKEYINYKIRKYDKIYKNISEESLNALSRKNELSIKIRKLKELLSCLEGHHHHHH,soluble
7,MKSTEVKGSVSDATDFLVPLPPKSVNEKILNPAILTLFIPQIKAVSSIRERIYLLRIKWVISWDTPLTVYSVKLDDNRYIARYYASQKIPLFVVSFGFDFYIMSEGTGSRIKMKEWYKGPFKQLAKGEIEKHLKKAKEVLPEFLIKILEHHHHHH,soluble
8,MSLILTLDPQVAGASGDMVLGALIAVGADPNRLEEVVHEVSSLGHEVDVHVHEIQKRGIRAVRVEVDAEGDLRDPDELREAVKTVAENVLEDRWRELPELALKYLLRAEERVHGDLCHLHELGSSDTVVDLVGTAALLEDLNPKASEVLPPNVGSGTVETEHGRLPVPAPAVVEVLSEWDVGIVREGEGELLTPTGAALLRTIDELLPDPPPPYRVKRQGFGAGTKDLPDRPNVLRALICEPGGSGEHVRIVETSVDDVDGEAVGELIEAVLQLEGVHDVEVLHGFGKKGRPRFVIRVVTEDRPGIEREVFRELFRWTGTLGARVYRCTRVTADRRIVDVDGIRVKVSRFEDVHHAKPEWEDVRRKVDRESAPLTRARLVGDLRKRYEGDGEDGAGDEGHHHHHH,soluble
9,MSLNAGKVVQTAKLFQDIHPEERLEKTLVDDRFAALREVIAGRTDGGQSGGGTMQIASLLTMLNEYYTQLTIADSALAAGTLPARITAADKLQLEAAKLPAPLKNILLDLTKQGTRKINAGTGDVLNTQMEAMMGDDCRDAIDGRYPFADSPQEVSAEDFNRIFASGGVLDAFWSKQLAPLADTASDPWRYKPTEGNMTLQGPDLTPFQQAKQIRSVFFNSEGGKKFSWSMQISVVDMDPAIMELVIDIDGQVLRYAHGPDRPLKVTWPGPRNGSMAEITASPRIRQDTSTLLTGGPWALFHLLDAGMVQETAVRGRQLVEYDFDGRRVVLEITAGRDFNPVSRELLQNFSCPARALEGHHHHHH,not soluble
10,MKIVWYGHACFLVKTKGVSILIDPYPDVDEDRMEKVDYILITHEHMDHYGKTPLIAKLNDAEVIGPKTVYLMAISDGLTKVREVEADQEFQLGDVTVKTFYTEHPTSQYPLGYLILGEKRVAHLGDTYYSPGFRELRGQVDILLVPIGGRSTASEREAVDIIDIIRPRIVVPMHYGTYGSTGNVESFKRELQRRRVWVLVKDLKPYEGFEV,soluble
11,MATIIFAGRSNVGKSTLIYRLTGKKVRRGKRPGVTRKIIEIEWKNHKIIDMPGFGFMMGLPKEVQERIKDEIVHFIEDNAKNIDVAVLVVDGKAAPEIIKRWEKRGEIPIDVEFYQFLRELDIPTIVAVNKLDKIKNVQEVINFLAEKFEVPLSEIDKVFIPISAKFGDNIERLKNRIFEVIRERQGRRV,soluble
12,MEKSVNVIGAGLAGSEAAWQLVKRGVKVDLYEMRPVKQTPAHHTDKFAELVCTNSLRANGLTNAVGVIKEEMRLLDSIIIESADKASVPAGGALAVDRHEFSGYITDKVKNHPLVTIHTEEVTSIPEGPTIIATGPLTSPALAEEIKRLTGEEYLYFYDAAAPIIEKDSIDMDKVYLKSRYDKGEAAYLNCPMSEEEFNTFYEALVTAETAALKEFEKEVFFEGCMPIEVMAKRGIKTMLFGPLKPVGLEDPKTGKRPYAVLQLRQDDAAGTLYNMVGFQTHLKWGEQKRVFGLIPGLENAEIVRYGVMHRNTFINSPTVLEPTYQLKTRNDLFFAGQMTGVEGYVESAASGLAAGINAANFVQDKEPIVFPPESAIGSLANYITSASKKSFQPMNVNFGLFPELPTKIRAKQERNEKLAERALDAIKKVAEQLLEHHHHHH,soluble
13,MTAPTLAPIDPPARAQLLTDLQGAPDWDVIVIGGGATGLGTAVDAAARGYRTLLVEAADFAKGTSSKATKLVHGGVRYLAQGNISLVREALHERGLLNRNAPHLVWPLGFVVPAYSLLDQPFYGVGLKMYDMLAGKLNLAPSRWLSRGETLRHAATVAERVNGRALRGGILYYDGQFDDARLAIALMRTLYDLGGVALNYARAVGLTRTDGRVDGVTVADALGELRVTLRAKCVVNATGVWVDAVRRMDDPAAQTMVAPSQGVHLTLPRDFLPGEDAILIPKTDDGRVLFVVPWNGHTIVGTTDTPRTDLPLDPQAGQNEIDFILATAARYLSRKPTRADVTSVWAGLRPLVKATGEASTKSLSREHTIVVSKGGLVTVTGGKWTTYRKMAQDVVDTAIEHKLLAAAPCRTSELPLHGAPADGQPNGAPHGTPDSYYGTDLATLRALPGADRMLVKASALTEAHVRYAARHELARTVEDVLARRNRALFLDAEAALLAAPEVARILAQELGHDEAWSRATLAEFEAVAAHYRLALEHHHHHH,not soluble
14,MWSEYSLEVVDAVARNGSFSAAAQELHRVPSAVSYTVRQLEEWLAVPLFERRHRDVELTPAGVWFLQEGRSVIKKMQITRQQCQQIANGWRGQLSIAVDDIVKPARMRQMIVDFYRHFPDVELIVFQEVFNGVWDALADGRVELAIGATRSIPVGGRYAFRDMGMLSWDCVVASDHPLAKMEGPLSDDVLRNWPSLVREDTSRSLPKRTTWLLDNQKRVVVPDWESSATCLSAGLCVGMVPSHFARPWIDRGEWTALALENPFPDAACCLTWQQNDASPALNWMLDYLGDSDTLNREWLRAPERSAPARCLNDDNRQTGHPLPSGAQPDGGALR,not soluble
15,MEDKNSVIVFKNVSFQYQSDASFTLKDVSFNIPKGQWTSIVGHNGSGKSTIAKLMIGIEKVKSGEIFYNNQAITDDNFEKLRKDIGIVFQNPDNQFVGSIVKYDVAFGLENHAVPYDEMHRRVSEALKQVDMLERADYEPNALSGGQKQRVAIASVLALNPSVIILDEATSMLDPDARQNLLDLVRKVKSEHNITIISITHDLSEAMEADHVIVMNKGTVYKEGTATEIFDNAEELTRIGLDLPFPIKINQMLGHQTSFLTYEGLVDQL,not soluble
16,MGSDKIHHHHHHMKPLAYRMRPQSIDQVVGQQHLVGPKKIIRRMVEARQLSSMILYGPPGIGKTSIASAIAGSSKYAFRQLNAATDGQKELSQVAAEGKMSGTVVLLLDEIHRLNKVKQDFLLPLLESGQVIMIGATTENPYLAISPAIRSRCQIFELKPLTEEEILTAVDRALTDEERGLGKYHAKLTKEAGEFLAQKGNGDLRATLNSLELAVLSTKQELEAEGKDASSLTVTLDDMADSLQMKIQNFDADGDGHYDLLSAFQKSIRGSDTDAGLHYLGRLLESGDLVSICRRLSVIAYEDIGLANPPACERVILAVQAAQQLGLPEARIPLANAVIELCLSPKSNSAMTAIDAALADIRQSNVGQIPDQLKDAHYKGASKLGHGTGYLYPHDYPGDWVAQAYLPDRMQGKQYFAPKGESKFEAAFKSQYQRLHDLQKAGLKGK,not soluble
17,MSLNAQTKSLHQLQQEFVDLRCGMFIHFNMPTFFNEDWPDPDAAPELFNPVRMDCKQWAKAAKSANMTYGCLTTKHHSGFCIWDTKTTDYSVMSSPFKRDVVKEYADAFRAEGMKVMLYYSILDTHARLRPKCITPQHIEMIKEQLRELLTNYGEITALIIDGWDAPWSRISYDDVPFEDIYRLVKSIQPNCLVMDLNAAKYPAEALFYTDIKSYEQGAGQHISKDTNRLPALSCLPLQQNWFWKESFPTTPVKSPAQMVNDNIIPMGKSYCNFILNVAPNRDGLMDANALKALKEIGKLWKNDGRVATVPEADAPIISSNIAKYQPAEGTWSSDYAIMDFANDDDFGTCWNSNPEVKVPWYSVTFEREKSFNMVVITDRNNDRLQEYRLEYRAGGTWKPLYEGKAPTGLRVKIHRFDTVWGDAVRMTVLNSNGTTSIAEFGVYCEREGHHHHHH,soluble
18,MSSSTTDDDSCSYFFFRQACLIPTPSVPTHPSVSIKIYPPFAEFIDFGGASRHILTNNGTCRIVFKVKCSNNLVFKVSPVYAFLDPGATAELQVLRREGPPKHDKLIISLKEAKKGDKDPRVTFNDSTHTTHKHILPLLTRIVEEQ,not soluble
